According to patent US20180118789A1 (REGENTS OF THE UNIVERSITY OF MINNESOTA, published 2018):
One block for each binder: values may come before it. Non-standard residues stand in square brackets, D forms with d. Dap = NC[C@H](N)C(=O)O

What was measured:
Test in all cases: cell-based or functional assay
[1] = biological target: T1, mouse melanocortin 1 receptor (mouse, UniProt Q01727 1-315)
[2] = biological target: T2, mouse melanocortin 3 receptor (mouse, UniProt P33033 1-323)
[3] = biological target: T3, mouse melanocortin 4 receptor (mouse, UniProt P56450 1-332)
T3 sequence (P56450 whole entry): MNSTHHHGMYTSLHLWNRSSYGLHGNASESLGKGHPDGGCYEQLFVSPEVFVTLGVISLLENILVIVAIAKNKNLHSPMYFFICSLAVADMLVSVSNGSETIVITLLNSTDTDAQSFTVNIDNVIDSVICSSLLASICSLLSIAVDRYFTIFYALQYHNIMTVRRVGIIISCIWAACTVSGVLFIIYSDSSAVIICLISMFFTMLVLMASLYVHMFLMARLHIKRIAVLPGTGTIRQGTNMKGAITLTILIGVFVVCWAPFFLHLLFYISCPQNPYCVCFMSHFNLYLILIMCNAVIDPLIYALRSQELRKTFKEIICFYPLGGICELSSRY

[4] = biological target: T4, mouse melanocortin 5 receptor (mouse, UniProt P41149 1-325)
T4 sequence (P41149 whole entry): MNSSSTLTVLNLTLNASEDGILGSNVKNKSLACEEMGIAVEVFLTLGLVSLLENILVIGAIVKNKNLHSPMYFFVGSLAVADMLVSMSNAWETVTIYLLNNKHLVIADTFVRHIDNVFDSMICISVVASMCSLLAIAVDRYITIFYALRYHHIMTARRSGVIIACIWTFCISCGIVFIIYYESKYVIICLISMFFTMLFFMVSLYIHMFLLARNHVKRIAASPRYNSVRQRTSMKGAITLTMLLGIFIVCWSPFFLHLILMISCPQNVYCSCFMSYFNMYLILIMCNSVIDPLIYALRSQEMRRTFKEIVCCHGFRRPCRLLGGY

[5] = biological target: T1, mouse melanocortin 1 receptor; remark: listed apart in the source
[6] = biological target: T3, mouse melanocortin 4 receptor; remark: listed apart in the source
[7] = biological target: T4, mouse melanocortin 5 receptor; remark: listed apart in the source
[8] = biological target: T2, mouse melanocortin 3 receptor; remark: listed apart in the source

T1 sequence (Q01727 whole entry): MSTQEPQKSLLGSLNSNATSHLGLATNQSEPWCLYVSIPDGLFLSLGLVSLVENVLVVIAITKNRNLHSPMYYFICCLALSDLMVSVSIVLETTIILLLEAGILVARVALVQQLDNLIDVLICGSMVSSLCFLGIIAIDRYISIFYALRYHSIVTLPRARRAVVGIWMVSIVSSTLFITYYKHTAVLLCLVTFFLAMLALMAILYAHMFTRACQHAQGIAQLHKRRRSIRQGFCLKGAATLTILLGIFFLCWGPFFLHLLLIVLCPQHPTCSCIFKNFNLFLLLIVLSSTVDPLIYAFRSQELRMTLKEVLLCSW
T2 sequence (P33033 whole entry): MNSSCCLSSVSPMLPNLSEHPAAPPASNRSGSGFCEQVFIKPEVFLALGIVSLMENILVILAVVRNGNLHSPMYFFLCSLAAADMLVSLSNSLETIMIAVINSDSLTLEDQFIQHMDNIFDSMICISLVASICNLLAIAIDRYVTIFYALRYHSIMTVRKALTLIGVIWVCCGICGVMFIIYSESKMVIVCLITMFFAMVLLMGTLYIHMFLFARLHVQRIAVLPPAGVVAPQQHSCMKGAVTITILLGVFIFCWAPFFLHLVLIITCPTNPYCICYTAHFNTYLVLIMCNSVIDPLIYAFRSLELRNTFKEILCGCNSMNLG

- apparent EC50 (nM), partial agonist, cAMP AlphaScreen [1]: 110 nM
- partial agonist, percent maximal NDP stimulation [1]: 75%
- EC50 (nM), agonist, cAMP AlphaScreen (lacked agonist activity at up to 100 µM) [2]: > 100000 nM
- percent maximal stimulatory response observed at 100 µM [3]: 35%
- EC50 (nM), agonist, cAMP AlphaScreen (lacked agonist activity at up to 100 µM) [4]: > 100000 nM
B1: MDE6-12-1c, c[Pro-DPhe-Arg-Trp-Dap-DPro] (peptide)
peptide: cyclo(P[dF]RW[Dap][dP])
modifications: also: TFA salt

- fold decrease of agonist potency relative to MDE6-5-2c [5]: 418 fold
- fold decrease of agonist potency relative to MDE6-5-2c [6]: 593 fold
- fold decrease of agonist potency relative to MDE6-5-2c [7]: 1100 fold
- EC50 (nM), agonist, cAMP AlphaScreen [1]: 460 nM
- percent maximal stimulatory response observed at 100 µM [2]: 65%
- EC50 (nM), agonist, cAMP AlphaScreen [3]: 950 nM
- EC50 (nM), agonist, cAMP AlphaScreen [4]: 330 nM
B2: MDE6-12-2c, c[Pro-His-DPhe-Arg-Trp-Dap-DPro] (peptide)
peptide: cyclo(PH[dF]RW[Dap][dP])
modifications: also: TFA salt

- EC50 (nM), agonist, cAMP AlphaScreen [1]: 1.1 nM
- EC50 (nM), agonist, cAMP AlphaScreen [2]: 40 nM
- EC50 (nM), agonist, cAMP AlphaScreen [3]: 1.6 nM
- EC50 (nM), agonist, cAMP AlphaScreen [4]: 0.3 nM
B3: MDE6-5-2c, c[Pro-His-DPhe-Arg-Trp-Dap-Ala-DPro] (peptide)
peptide: cyclo(PH[dF]RW[Dap]A[dP])
modifications: also: TFA salt

- EC50 (nM), agonist, cAMP AlphaScreen [1]: 900 nM
- percent maximal stimulatory response observed at 100 µM [2]: 60%
- percent maximal stimulatory response observed at 100 µM [3]: 65%
- EC50 (nM), agonist, cAMP AlphaScreen [4]: 6000 nM
B4: MDE5-147-2c, c[Pro-His-DPhe-Arg-Trp-DPro] (peptide)
peptide: cyclo(PH[dF]RW[dP])
modifications: also: TFA salt

- EC50 (nM), agonist, cAMP AlphaScreen [1]: 600 nM
- percent maximal stimulatory response observed at 100 µM [2]: 70%
- EC50 (nM), agonist, cAMP AlphaScreen [3]: 150 nM
- EC50 (nM), agonist, cAMP AlphaScreen [4]: 48 nM
B5: MDE6-5-1c, c[Pro-DPhe-Arg-Trp-Dap-Ala-DPro] (peptide)
peptide: cyclo(P[dF]RW[Dap]A[dP])
modifications: also: TFA salt

- apparent EC50 (nM), partial agonist, cAMP AlphaScreen [1]: 190 nM
- partial agonist, percent maximal NDP stimulation [1]: 45%
- apparent EC50 (nM), partial agonist, cAMP AlphaScreen [2]: 3000 nM
- partial agonist, percent maximal NDP stimulation [2]: 70%
- EC50 (nM), agonist, cAMP AlphaScreen [3]: 100 nM
- EC50 (nM), agonist, cAMP AlphaScreen [4]: 46 nM
B6: MDE5-151-1c, c[Pro-DPhe-Arg-Trp-Dap-Ala-Phe-DPro] (peptide)
peptide: cyclo(P[dF]RW[Dap]AF[dP])
modifications: also: TFA salt

- fold decreased potency relative to MDE5-149-2c [5]: 1140 fold
- fold decreased potency relative to MDE5-149-2c [6]: 90 fold
- fold decreased potency relative to MDE5-149-2c [7]: 90 fold
- EC50 (nM), agonist, cAMP AlphaScreen [1]: 400 nM
- percent maximal stimulatory response observed at 100 µM [2]: 45%
- EC50 (nM), agonist, cAMP AlphaScreen [3]: 130 nM
- EC50 (nM), agonist, cAMP AlphaScreen [4]: 40 nM
B7: MDE5-149-1c, c[Pro-DPhe-Arg-Trp-Asn-Ala-Phe-DPro] (peptide)
peptide: cyclo(P[dF]RWNAF[dP])
modifications: also: TFA salt

- fold decreased potency relative to MDE5-149-2c [5]: 70 fold
- EC50 (nM), agonist, cAMP AlphaScreen [1]: 24 nM
- EC50 (nM), agonist, cAMP AlphaScreen [2]: 260 nM
- apparent EC50 (nM), partial agonist, cAMP AlphaScreen [3]: 23 nM
- partial agonist, percent maximal NDP stimulation [3]: 70%
- EC50 (nM), agonist, cAMP AlphaScreen [4]: 18 nM
B8: MDE5-151-2c, c[Pro-His-DPhe-Arg-Trp-Dap-Ala-Phe-DPro] (peptide)
peptide: cyclo(PH[dF]RW[Dap]AF[dP])
modifications: also: TFA salt

- fold increase of agonist potency over MDE5-149-1c [5]: 10 fold
- fold decrease of agonist potency against MDE5-149-1c [6]: 8 fold
- EC50 (nM), agonist, cAMP AlphaScreen [1]: 40 nM
- EC50 (nM), agonist, cAMP AlphaScreen (lacked agonist activity at up to 100 µM) [2]: > 100000 nM
- EC50 (nM), agonist, cAMP AlphaScreen [3]: 1100 nM
- percent maximal stimulatory response observed at 100 µM [4]: 25%
B9: MDE6-10-1c, c[Pro-DPhe-Arg-Trp-Asn-DPro] (peptide)
peptide: cyclo(P[dF]RWN[dP])
modifications: also: TFA salt

- fold loss of agonist potency relative to MDE5-149-2c [5]: 34 fold
- fold loss of agonist potency relative to MDE5-149-2c [8]: 9 fold
- fold loss of agonist potency relative to MDE5-149-2c [6]: 21 fold
- fold loss of agonist potency relative to MDE5-149-2c [7]: 5 fold
- EC50 (nM), agonist, cAMP AlphaScreen [1]: 12 nM
- EC50 (nM), agonist, cAMP AlphaScreen [2]: 300 nM
- EC50 (nM), agonist, cAMP AlphaScreen [3]: 29 nM
- EC50 (nM), agonist, cAMP AlphaScreen [4]: 2.1 nM
B10: MDE6-3-2c, c[Pro-His-DPhe-Arg-Trp-Asn-Ala-DPro] (peptide)
peptide: cyclo(PH[dF]RWNA[dP])
modifications: also: TFA salt

- EC50 (nM), agonist, cAMP AlphaScreen [1]: 500 nM
- percent maximal stimulatory response observed at 100 µM [2]: 55%
- EC50 (nM), agonist, cAMP AlphaScreen [3]: 420 nM
- EC50 (nM), agonist, cAMP AlphaScreen [4]: 70 nM
B11: MDE6-3-1c, c[Pro-DPhe-Arg-Trp-Asn-Ala-DPro] (peptide)
peptide: cyclo(P[dF]RWNA[dP])
modifications: also: TFA salt

- EC50 (nM), agonist, cAMP AlphaScreen [1]: 0.35 nM
- EC50 (nM), agonist, cAMP AlphaScreen [2]: 32 nM
- EC50 (nM), agonist, cAMP AlphaScreen [3]: 1.4 nM
- EC50 (nM), agonist, cAMP AlphaScreen [4]: 0.45 nM
B12: MDE5-149-2c, c[Pro-His-DPhe-Arg-Trp-Asn-Ala-Phe-DPro] (peptide)
peptide: cyclo(PH[dF]RWNAF[dP])
modifications: also: TFA salt

- fold decrease of agonist potency relative to MDE5-149-2c [5]: 143 fold
- fold decrease of agonist potency relative to MDE5-149-2c [6]: 121 fold
- fold decrease of agonist potency relative to MDE5-149-2c [7]: 37 fold
- EC50 (nM), agonist, cAMP AlphaScreen [1]: 50 nM
- apparent EC50 (nM), partial agonist, cAMP AlphaScreen [2]: 510 nM
- partial agonist, percent maximal NDP stimulation [2]: 65%
- EC50 (nM), agonist, cAMP AlphaScreen [3]: 170 nM
- EC50 (nM), agonist, cAMP AlphaScreen [4]: 16.8 nM
B13: MDE6-10-2c, c[Pro-His-DPhe-Arg-Trp-Asn-DPro] (peptide)
peptide: cyclo(PH[dF]RWN[dP])
modifications: also: TFA salt

- EC50 (nM), agonist, cAMP AlphaScreen [1]: 1800 nM
- EC50 (nM), agonist, cAMP AlphaScreen (lacked agonist activity at up to 100 µM) [2]: > 100000 nM
- percent maximal stimulatory response observed at 100 µM [3]: 50%
- percent maximal stimulatory response observed at 100 µM [4]: 75%
B14: MDE5-147-1c, c[Pro-DPhe-Arg-Trp-DPro] (peptide)
peptide: cyclo(P[dF]RW[dP])
modifications: also: TFA salt
